This note sets out measurements from paper PMC8471396.

Values joined by “and” are separate entries in the source; they are usually repeats but may differ in a detail not shown here. Equal entries are not always repeated.

Assay [1] concerns the target succinate-acetate permease (SatP) from Citrobacter koseri ATCC BAA-895 (Citrobacter koseri ATCC BAA-895). As to the kind of experiment: SDS-PAGE and Western blot of oligomer bands; SatP in SMA native nanodiscs from E. coli membranes, after the nickel affinity column; no cross-linker; anti-His Western blot. (Immunoblotting shows a protein as a band on a membrane.)
For assay [2] the target is unchanged. The assay can be described thus: cross-linking; SatP in DOPC/DOPG liposomes, 10 uM protein in 20 mM HEPES pH 7.3; 0.5 mM BS3 (DMSO as control), room temperature, 1 h; 4-20% gradient SDS-PAGE.

One may read the stoichiometry N as a count of units in the complex or per binding partner. Turning to “succinate-acetate permease (SatP) from Citrobacter koseri ATCC BAA-895 (natural protein)”, the stoichiometry N is 6 in assay [1]; 6 and 5 and 4 in assay [2].
